This is an account of results in US20260125477A1 (BEIJING MABWORKS BIOTECH, published 2026).

To fix the notation:
B1: 10F5 (antibody, human IgG1, kappa, V domains shown)
VH: QVQLVQSGAEVKKPGSSVKVSCKASGGTFSSQAISWVRQAPGQGLEWMGRIIPMLGIGDYAQSFQGRVTITADKSTSTAYLEVSSLGSEDTAVYYCAREGIAALGTNYYYGMDVWGQGTAVTVSS
VL: EIVMTQSPSSVSASVGDRVTITCRASQGISRWLAWYQQKPGKAPKLLIYVASSLQSGVPSRFSGSGSGTDFTLTISSLQPEDFATYYCQQANSFPFTFGPGTKVDIRR
notes: also called Ab10F5
B2: Enoblituzumab (antibody, human IgG1, kappa, V domains shown)
VH: EVQLVESGGGLVQPGGSLRLSCAASGFTFSSFGMHWVRQAPGKGLEWVAYISSDSSAIYYADTVKGRFTISRDNAKNSLYLQMNSLRDEDTAVYYCGRGRENIYYGSRLDYWGQGTTVTVSS
VL: DIQLTQSPSFLSASVGDRVTITCKASQNVDTNVAWYQQKPGKAPKALIYSASYRYSGVPSRFSGSGSGTDFTLTISSLQPEDFATYYCQQYNNYPFTFGQGTKLEIKR
notes: Humanized anti-B7-H3 antibody of MacroGenics with optimised Fc, used as the positive control; also called AbEno; enoblituzumab-IgG1-Mut
B3: 6B5 (antibody, human IgG1, kappa, V domains shown)
VH: QVQLVESGPGLVKPSQTLSLTCTVSDGSISSGGYYWSWIRQHPGKGLEWIGYIYYSGGTYYSPSLKSRVTISVDTSKNQFSLKLTSVTAADTAVYYCARRAGYSSSFDSWGQGILVTVSS
VL: EIVLTQSPLSLPVTPGEPASISCRSSQSLLYSNGYTYLDWYLQKPGQSPQFLIYLGFNRASGVPDRFSGSGSGTDFTLKISRVEAEDVGVYYCMQGLQTPYTFGQGTKLEIKR
notes: also called 6B5-WT; Ab6B5
B4: 10D7 (antibody, human IgG1, kappa, V domains shown)
VH: QVQLVQSGPGLVKPSETLSLTCTVSGGSISRSSYYWGWIRQPPGKGLEWIGNIFYAGSTYYNPSLKSRVTISVDTSKNQFSLKLSSVTAADTAVYYCARRITGTTGWFDPWGQGTLVTVSS
VL: DIQLTQSPSSLSASVGDRVTITCRASQGIRNDLGWYQQKPGKAPKLLIYAASTLQSGVPSRFSGSGSGTDFTLTISSLQPEDFATYYCLQDYNYPRTFGQGTKVEIKR
notes: also called 10D7-WT; Ab10D7

The first assay concerns the target T1, recombinant human B7-H3 (4Ig) protein, with His tag (human, UniProt Q5ZPR3 29-461, limits assumed).
T1 construct: Bought protein; also called human B7-H3 (4Ig)/B7-H3b protein
T1 sequence (looked up): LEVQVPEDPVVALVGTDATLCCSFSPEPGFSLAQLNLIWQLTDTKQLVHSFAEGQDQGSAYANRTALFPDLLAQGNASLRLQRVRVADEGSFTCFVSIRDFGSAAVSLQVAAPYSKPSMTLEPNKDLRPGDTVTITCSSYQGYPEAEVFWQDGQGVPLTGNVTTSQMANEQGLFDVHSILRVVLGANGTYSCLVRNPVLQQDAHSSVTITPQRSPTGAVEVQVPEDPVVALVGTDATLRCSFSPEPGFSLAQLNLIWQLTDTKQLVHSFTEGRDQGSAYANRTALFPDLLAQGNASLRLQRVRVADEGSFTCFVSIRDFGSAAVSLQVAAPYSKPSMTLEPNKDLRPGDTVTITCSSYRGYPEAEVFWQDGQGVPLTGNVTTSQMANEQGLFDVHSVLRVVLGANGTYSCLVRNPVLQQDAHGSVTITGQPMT
Briefly: SPR (Biacore T200), antibody captured on Protein A chip, His-tagged antigen injected. As for the experimental part:
(§1) The fully human anti-human B7-H3 antibodies were tested for their binding affinity to human B7-H3 (4Ig), human B7-H3 (2Ig), monkey B7-H3 (monkey B7-H3/CD276 protein, with His tag, Cat #: B73-C52Ha, ACROBiosystems) and mouse B7-H3 protein (mouse B7-H3/CD276 protein, with His tag, Cat #: B73-M52H4, ACROBiosystems) by surface plasmon resonance (SPR) using Biacore T200 biosensor (Biacore, US) provided with a pre-fixed Protein A sensor chip. Briefly, the anti-human B7-H3 antibodies (1 μg/mL) were injected to the Biacore T200 biosensor at 10 μL/min for 20 sec, to achieve the desired protein density (100±30 RU).
(§2) The data as generated was analyzed using Biacore Insight V2.0.1 5.12933 with the one-to-one Langmuir binding model. The association rate (kₒₙ) and dissociation rate (koff) were obtained at the same time. The affinity was calculated as the quotient of the two kinetic rate constants (KD=koff/kₒₙ).
Consider B1, for which the Kd was 1.01 nM, the off-rate (koff) was 0.00011 s⁻¹ and the kon amounted to 109000 M⁻¹ s⁻¹.
On to B2, for which the Kd came to 1.11 nM, the koff worked out at 0.000239 s⁻¹ and the kon is 216000 M⁻¹ s⁻¹.
On the same counts, the results for B3 are 1.26 nM, 0.00031 s⁻¹ and 247000 M⁻¹ s⁻¹.
As for B4, the Kd was found to be 1.11 nM, the koff is 0.000291 s⁻¹ and the association rate constant (kon) was determined as 263000 M⁻¹ s⁻¹.

The next assay deals with T2, recombinant human B7-H3 (2Ig) protein, with His tag (human, UniProt Q5ZPR3-2 29-245, limits assumed).
T2 construct: Bought protein; also called human B7-H3/CD276 protein
T2 sequence (looked up): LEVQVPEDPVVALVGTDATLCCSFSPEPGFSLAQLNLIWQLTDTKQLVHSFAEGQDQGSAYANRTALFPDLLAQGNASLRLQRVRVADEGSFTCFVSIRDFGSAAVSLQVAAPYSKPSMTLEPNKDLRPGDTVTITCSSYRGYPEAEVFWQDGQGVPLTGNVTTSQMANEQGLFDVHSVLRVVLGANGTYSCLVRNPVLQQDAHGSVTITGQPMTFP
The assay is described as above. As for the experimental part:
as §1, §2
Consider B1, for which the Kd came out at 10.4 nM, the koff was found to be 0.000422 s⁻¹ and the association rate constant (kon) was 40500 M⁻¹ s⁻¹.
On to B2, for which the equilibrium dissociation constant (Kd) worked out at 275 nM, the koff was found to be 0.0203 s⁻¹ and the kon was determined as 73700 M⁻¹ s⁻¹.
B3: the Kd was found to be 51.5 nM, the koff was 0.00653 s⁻¹ and the kon is 127000 M⁻¹ s⁻¹.
As to B4, the equilibrium dissociation constant (Kd) is 386 nM, the koff was 0.0588 s⁻¹ and the kon came out at 152000 M⁻¹ s⁻¹.

A further assay addresses T3, monkey B7-H3/CD276 protein, with His tag (monkey).
T3 construct: Bought protein
The description is as above. As to the method: as §1, §2
The molecule B2 came in with a Kd of 0.966 nM, a koff of 0.000223 s⁻¹ and a kon of 231000 M⁻¹ s⁻¹.
As to B3, the affinity, expressed as Kd, was 1.14 nM; the off-rate (koff) came out at 0.000295 s⁻¹; the kon came out at 258000 M⁻¹ s⁻¹.
With B4, binding was put at a Kd of 49.5 nM, the koff is 0.0167 s⁻¹ and the kon amounted to 337000 M⁻¹ s⁻¹.

For the next assay, the target named is T1, recombinant human B7-H3 (4Ig) protein, …. The experiment in a line: SPR (Biacore T200), antibody captured on Protein A chip, response at 200 nM antigen. As to the method: (§3) The anti-human B7-H3 antibodies were tested for their binding capability to B7 family proteins by SPR using Biacore T200 biosensor (Biacore, US) provided with a pre-fixed Protein A sensor chip.
(§4) The dissociation was monitored for 600 sec. The data was analyzed using Biacore 8k evaluation software version 3.0, to obtain the binding responses, and the protein concentration-binding response curves were plotted, to determine the cross-reaction of the anti-human B7-H3 antibodies to the B7 family proteins.
Take B1: the “Response (RU)” value came out at 32.5 RU.
On to B2, for which the “Response (RU)” value was 25.7 RU.
Consider B3, for which the “Response (RU)” value stood at 34.8 RU.
The same measure, in the same setting: in the case of B4 it was 41.9 RU.

The target of the next assay is T4, human B7-H5/Gi24/VISTA protein, with His tag (MALS verified) (human, UniProt Q9H7M9 33-194).
T4 construct: Bought protein
T4 sequence (looked up): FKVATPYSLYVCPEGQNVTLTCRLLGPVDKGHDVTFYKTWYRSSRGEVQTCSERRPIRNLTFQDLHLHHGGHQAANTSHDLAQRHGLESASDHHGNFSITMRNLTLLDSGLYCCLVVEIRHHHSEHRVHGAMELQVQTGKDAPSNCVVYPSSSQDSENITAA
The description is as above. As for the experimental part: as §3, §4
As to B1, the “Response (RU)” value was determined as 0.6 RU.
As to B2, the “Response (RU)” value is -1.8 RU.
On the same count and under the same terms, the result for B3 reads 0.9 RU.
Consider B4, for which the “Response (RU)” value came to 0.6 RU.

The target of the next assay is T5, human PD-L1/B7-H1 protein, with His tag (human, UniProt Q9NZQ7 19-238).
T5 construct: Bought protein
T5 sequence (Q9NZQ7 19-238 limits assumed): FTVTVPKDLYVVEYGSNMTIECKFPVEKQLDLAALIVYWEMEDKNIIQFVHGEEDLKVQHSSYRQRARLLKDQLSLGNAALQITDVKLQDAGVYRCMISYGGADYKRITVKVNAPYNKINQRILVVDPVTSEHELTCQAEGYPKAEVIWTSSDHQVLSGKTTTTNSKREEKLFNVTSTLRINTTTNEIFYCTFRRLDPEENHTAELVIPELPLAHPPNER
The description is as above. As to the method: as §3, §4
As to B1, the “Response (RU)” value turned out to be 0.5 RU.
In the case of B2, the “Response (RU)” value is -2.2 RU.
Regarding B3, the “Response (RU)” value came out at 1 RU.
Consider B4, for which the “Response (RU)” value turned out to be 0.3 RU.

In a further assay the target is T6, human B7-H7/HHLA2 protein, with His tag (MALS verified) (human, UniProt Q9UM44 23-344, limits assumed).
T6 construct: Bought protein
T6 sequence (looked up): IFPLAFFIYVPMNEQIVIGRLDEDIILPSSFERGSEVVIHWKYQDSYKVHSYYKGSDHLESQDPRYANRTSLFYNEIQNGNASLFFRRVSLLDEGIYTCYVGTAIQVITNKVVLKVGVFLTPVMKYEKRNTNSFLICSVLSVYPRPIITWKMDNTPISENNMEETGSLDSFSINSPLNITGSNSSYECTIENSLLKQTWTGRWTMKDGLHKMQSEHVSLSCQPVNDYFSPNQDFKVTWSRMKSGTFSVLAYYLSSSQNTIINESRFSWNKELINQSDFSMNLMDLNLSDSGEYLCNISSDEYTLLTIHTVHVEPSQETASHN
Described as above. As to the method:
as §3, §4
As to B1, the “Response (RU)” value is 1.7 RU.
Regarding B2, the “Response (RU)” value is -1.3 RU.
For the molecule B3, the “Response (RU)” value is 1.3 RU.
B4: the “Response (RU)” value amounted to 0.2 RU.

Another assay concerns the target T7, human B7-2/CD86 protein, with His tag (human, UniProt P42081 26-247, limits assumed).
T7 construct: Bought protein
T7 sequence (looked up): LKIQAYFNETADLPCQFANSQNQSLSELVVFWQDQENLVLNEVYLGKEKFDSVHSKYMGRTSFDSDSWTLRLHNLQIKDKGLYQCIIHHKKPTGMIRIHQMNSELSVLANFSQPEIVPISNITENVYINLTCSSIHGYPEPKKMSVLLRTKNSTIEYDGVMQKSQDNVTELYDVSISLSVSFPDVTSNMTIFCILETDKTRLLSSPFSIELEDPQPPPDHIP
Described as above. As to the method: as §3, §4
For the molecule B1, the “Response (RU)” value was 0.5 RU.
As to B2, the “Response (RU)” value was -1.5 RU.
With B3, the “Response (RU)” value is 0.3 RU.
Take B4: the “Response (RU)” value is -0.2 RU.

One may read the Kd as the equilibrium constant for the complex coming apart. As a reminder, the koff is the first-order rate constant of dissociation. In general, kon refers to the rate constant with which the complex forms.
